Measured values reported in US20240279353A1 (KIROMIC BIOPHARMA, published 2024).

Key:
Assay in all cases: EC50 binding assay (ELISA screening, format not stated)
[1] = biological target: Mesothelin Isoform 2 (IsoMSLN), as used in the EC50 binding assay (human) (UniProt Q13421)
[2] = biological target: Mesothelin Isoform 1, as used in the EC50 binding assay (human) (UniProt Q13421)
[3] = biological target: T1, Mesothelin Isoform 2 (IsoMSLN), as used in the EC50 binding assay (human, UniProt Q13421 37-598)
T1 construct: also called MSLN Isoform 2; mesothelin isoform-2 polypeptide
T1 sequence (Q13421 37-606 limits assumed, form in doubt): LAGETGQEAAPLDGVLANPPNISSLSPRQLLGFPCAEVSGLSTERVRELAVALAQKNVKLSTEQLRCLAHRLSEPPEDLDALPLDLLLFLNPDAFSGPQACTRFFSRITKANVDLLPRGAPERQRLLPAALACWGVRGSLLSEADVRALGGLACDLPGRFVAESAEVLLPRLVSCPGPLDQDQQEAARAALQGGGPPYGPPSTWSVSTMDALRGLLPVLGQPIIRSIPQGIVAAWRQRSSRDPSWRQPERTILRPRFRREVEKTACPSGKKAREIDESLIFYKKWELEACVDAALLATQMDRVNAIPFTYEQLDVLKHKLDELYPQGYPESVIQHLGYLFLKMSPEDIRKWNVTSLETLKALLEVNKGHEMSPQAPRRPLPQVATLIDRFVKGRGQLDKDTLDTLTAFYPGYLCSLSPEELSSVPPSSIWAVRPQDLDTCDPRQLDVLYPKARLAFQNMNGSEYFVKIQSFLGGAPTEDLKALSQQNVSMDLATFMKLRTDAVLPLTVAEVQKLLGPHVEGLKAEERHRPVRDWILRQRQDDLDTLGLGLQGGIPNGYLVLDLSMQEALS

Mesothelin Isoform 2 (IsoMSLN), as used in the EC50 binding assay (human), sequence (Q13421 37-606 limits assumed, form in doubt): as above
Mesothelin Isoform 1, as used in the EC50 binding assay (human), sequence (Q13421 other isoform, or with tags, fused parts or gaps limits assumed): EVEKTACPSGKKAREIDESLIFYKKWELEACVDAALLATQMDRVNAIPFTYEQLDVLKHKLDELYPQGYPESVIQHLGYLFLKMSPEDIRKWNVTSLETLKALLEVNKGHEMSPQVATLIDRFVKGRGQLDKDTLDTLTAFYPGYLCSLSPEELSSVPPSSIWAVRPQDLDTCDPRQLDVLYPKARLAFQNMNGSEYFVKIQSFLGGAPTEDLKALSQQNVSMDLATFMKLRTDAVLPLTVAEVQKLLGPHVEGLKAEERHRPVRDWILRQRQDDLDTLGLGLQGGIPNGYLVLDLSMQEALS

| EC50 [1] [µg/mL] | EC50 [2] [µg/mL] | EC50 [3] [µg/mL] | Molecule |
| --- | --- | --- | --- |
| 0.11 | 0.15 | – | anti-MSLN antibody clone K1 (commercially available) |
| – | – | 0.073 | anti-IsoMSLN monoclonal antibody clone 1B6 (antibody, V domains shown, also called IB6) VH: EVKLVESGGGLVKPGGSLKLSCEASGFTFSRYAMSWVRHTPEKRLAWVASITFGGDPYYPDGLKGRFTISRDNTRNILYLQMNSLRSEDTAMYYCVRHESWFAYWGQGTLVTVSA VL: DVLMTQTPLSLPVSLGEQVSISCRSSQTIVHTDGNIYLEWYLQNPGQSPRLLIYKISNRFSGVPDRFSGSGSGTDFTLKISRVEAEDLGIYYCFQASHVPYTFGGGTKLEIK |
